± gives the standard deviation of the averaged measurements.
Experiment: total protein half-life in vivo (active degradation + dilution); higher = more stable protein
[1] = E. coli NCM3722 delta-clpP, growth: N-lim chemostat, doubling time 6 h
[2] = E. coli NCM3722 delta-hslV, growth: N-lim chemostat, doubling time 6 h
[3] = E. coli NCM3722 delta-lon, growth: N-lim chemostat, doubling time 6 h
[4] = E. coli NCM3722 delta-smpB, growth: N-lim chemostat, doubling time 6 h
[5] = wild type E. coli NCM3722, growth: C-lim chemostat, doubling time 12 h
[6] = wild type E. coli NCM3722, growth: N-lim chemostat, doubling time 6 h
[7] = wild type E. coli NCM3722, growth: N-lim chemostat, doubling time 12 h
[8] = E. coli NCM3722 delta-clpP delta-lon delta-hslV, growth: N-lim chemostat, doubling time 6 h
[9] = wild type E. coli NCM3722, growth: C-lim chemostat, doubling time 3 h
[10] = wild type E. coli NCM3722, growth: C-lim chemostat, doubling time 6 h
[11] = wild type E. coli NCM3722, growth: P-lim chemostat, doubling time 6 h
[12] = wild type E. coli NCM3722, growth: P-lim chemostat, doubling time 12 h

| Sequence | total protein half-life in vivo [1] | total protein half-life in vivo [2] | total protein half-life in vivo [3] | total protein half-life in vivo [4] | total protein half-life in vivo [5] | total protein half-life in vivo [6] | total protein half-life in vivo [7] | total protein half-life in vivo [8] | total protein half-life in vivo [9] | total protein half-life in vivo [10] | total protein half-life in vivo [11] | total protein half-life in vivo [12] |
| --- | --- | --- | --- | --- | --- | --- | --- | --- | --- | --- | --- | --- |
| MPLVIVAIGVILLLLLMIRFKMNGFIALVLVALAVGLMQGMPLDKVIGSIKAGVGGTLGSLALIMGFGAMLGKMLADCGGAQRIATTLIAKFGKKHIQWAVVLTGFTVGFALFYEVGFVLMLPLVFTIAASANIPLLYVGVPMAAALSVTHGFLPPHPGPTAIATIFNADMGKTLLYGTILAIPTVILAGPVYARVLKGIDKPIPEGLYSAKTFSEEEMPSFGVSVWTSLVPVVLMAMRAIAEMILPKGHAFLPVAEFLGDPVMATLIAVLIAMFTFGLNRGRSMDQINDTLVSSIKIIAMMLLIIGGGGAFKQVLVDSGVDKYIASMMHETNISPLLMAWSIAAVLRIALGSATVAAITAGGIAAPLIATTGVSPELMVIAVGSGSVIFSHVNDPGFWLFKEYFNLTIGETIKSWSMLETIISVCGLVGCLLLNMVI | 6.71 ± 1 h | 5.83 ± 0.38 h | 6.2 ± 0.55 h | 6.06 ± 0.3 h | 10 ± 0.67 h | 5.75 h | 13 h | – | – | – | – | – |
| MPPRALLLVDLQNDFCAGGALAVPEGDSTVDVANRLIDWCQSRGEAVIASQDWHPANHGSFASQHGVEPYTPGQLDGLPQTFWPDHCVQNSEGAQLHPLLHQKAIAAVFHKGENPLVDSYSAFFDNGRRQKTSLDDWLRDHEIDELIVMGLATDYCVKFTVLDALQLGYKVNVITDGCRGVNIQPQDSAHAFMEMSAAGATLYTLADWEETQG | 3.93 ± 0.17 h | – | 4.52 ± 1.1 h | 3.78 ± 0.19 h | 10.1 ± 0.99 h | 4.16 ± 0.32 h | 6.53 h | 4.67 ± 0.11 h | 3.05 ± 0.12 h | 6.27 ± 1.3 h | 4.76 h | 11.1 ± 0.22 h |
| MPPRRYNPDTRRDELLERINLDIPGAVAQALREDLGGTVDANNDITAKLLPENSRSHATVITRENGVFCGKRWVEEVFIQLAGDDVTIIWHVDDGDVINANQSLFELEGPSRVLLTGERTALNFVQTLSGVASKVRHYVELLEGTNTQLLDTRKTLPGLRSALKYAVLCGGGANHRLGLSDAFLIKENHIIASGSVRQAVEKASWLHPDAPVEVEVENLEELDEALKAGADIIMLDNFETEQMREAVKRTNGKALLEVSGNVTDKTLREFAETGVDFISVGALTKHVQALDLSMRFR | 5.46 ± 2.3 h | 4.1 ± 0.29 h | 6.13 ± 1.8 h | 4.05 ± 0.33 h | 8.46 ± 0.51 h | 3.72 ± 0.12 h | 7.1 ± 0.15 h | 4.6 ± 0.47 h | 2.86 ± 0.25 h | 5.827 ± 0.04 h | 5.5 ± 0.4 h | 9.73 ± 0.27 h |
| MPQSALFTGIIPPVSTIFTADGQLDKPGTAALIDDLIKAGVDGLFFLGSGGEFSQLGAEERKAIARFAIDHVDRRVPVLIGTGGTNARETIELSQHAQQAGADGIVVINPYYWKVSEANLIRYFEQVADSVTLPVMLYNFPALTGQDLTPALVKTLADSRSNIIGIKDTIDSVAHLRSMIHTVKGAHPHFTVLCGYDDHLFNTLLLGGDGAISASGNFAPQVSVNLLKAWRDGDVAKAAGYHQTLLQIPQMYQLDTPFVNVIKEAIVLCGRPVSTHVLPPASPLDEPRKAQLKTLLQQLKLC | – | 3.07 h | – | – | – | – | – | – | – | – | – | – |
| MPRFAANLSMMFTEVPFIERFAAARKAGFDAVEFLFPYNYSTLQIQKQLEQNHLTLALFNTAPGDINAGEWGLSALPGREHEAHADIDLALEYALALNCEQVHVMAGVVPAGEDAERYRAVFIDNIRYAADRFAPHGKRILVEALSPGVKPHYLFSSQYQALAIVEEVARDNVFIQLDTFHAQKVDGNLTHLIRDYAGKYAHVQIAGLPDRHEPDDGEINYPWLFRLFDEVGYQGWIGCEYKPRGLTEEGLGWFDAWR | 2.21 h | 2.23 h | 2.48 ± 0.15 h | 2.41 ± 0.048 h | 6.54 ± 0.17 h | – | 3.45 h | 3.98 h | 2.829 ± 0.0073 h | 3.68 ± 0.23 h | 4.28 h | 8.69 ± 0.052 h |
| MPRLASAVLPLCSQHPGQCGLFPLEKSLDAFAARYRLAEMAEHTLDVQYYIWQDDMSGRLLFSALLAAAKRGVRVRLLLDDNNTPGLDDILRLLDSHPRIEVRLFNPFSFRLLRPLGYITDFSRLNRRMHNKSFTVDGVVTLVGGRNIGDAYFGAGEEPLFSDLDVMAIGPVVEDVADDFARYWYCKSVSPLQQVLDVPEGEMADRIELPASWHNDAMTHRYLRKMESSPFINHLVDGTLPLIWAKTRLLSDDPAKGEGKAKRHSLLPQRLFDIMGSPSERIDIISSYFVPTRAGVAQLLRMVRKGVKIAILTNSLAANDVAVVHAGYARWRKKLLRYGVELYELKPTREQSSTLHDRGITGNSGASLHAKTFSIDGKTVFIGSFNFDPRSTLLNTEMGFVIESETLAQLIDKRFIQSQYDAAWQLRLDRWGRINWVDRHAKKEIILKKEPATSFWKRVMVRLASILPVEWLL | 5.95 ± 0.048 h | 5.92 ± 1.4 h | 5.31 ± 0.46 h | 5.1 ± 0.35 h | – | 4.78 ± 0.52 h | 11.1 ± 0.75 h | 5.59 ± 0.72 h | 2.78 ± 0.11 h | 5.38 ± 0.64 h | 5.59 ± 0.044 h | – |
| MPRLLTKRGCWITLAAAPFLLFLAAWGADKLWPLPLHEVNPARVVVAQDGTPLWRFADADGIWRYPVTIEDVSPRYLEALINYEDRWFWKHPGVNPFSVARAAWQDLTSGRVISGGSTLTMQVARLLDPHPKTFGGKIRQLWRALQLEWHLSKREILTLYLNRAPFGGTLQGIGAASWAYLGKSPANLSYSEAAMLAVLPQAPSRLRPDRWPERAEAARNKVLERMAVQGVWSREQVKESREEPIWLAPRQMPQLAPLFSRMMLGKSKSDKITTTLDAGLQRRLEELAQNWKGRLPPRSSLAMIVVDHTDMRVRGWVGSVDLNDDSRFGHVDMVNSIRSPGSVLKPFVYGLALDEGLIHPASLLQDVPRRTGDYRPGNFDSGFHGPISMSEALVRSLNLPAVQVLEAYGPKRFAAKLRNVGLPLYLPNGAAPNLSLILGGAGAKLEDMAAAYTAFARHGKAGKLRLQPDDPLLERPLMSSGAAWIIRRIMADEAQPLPDSALPRVAPLAWKTGTSYGYRDAWAIGVNARYVIGIWTGRPDGTPVVGQFGFASAVPLLNQVNNILLSRSANLPEDPRPNSVTRGVICWPGGQSLPEGDGNCRRRLATWLLDGSQPPTLLLPEQEGINGIRFPIWLDENGKRVAADCPQARQEMINVWPLPLEPWLPASERRAVRLPPASTSCPPYGHDAQLPLQLTGVRDGAIIKRLPGAAEATLPLQSSGGAGERWWFLNGEPLTERGRNVTLHLTDKGDYQLLVMDDVGQIATVKFVMQ | 6.31 ± 1.1 h | 5.74 ± 0.091 h | 5.64 ± 0.55 h | 4.87 ± 1.3 h | 11.2 h | 5.98 h | 13.92 ± 0.086 h | 5.44 h | 3.04 h | – | 6.15 ± 2 h | 9.01 ± 4 h |
| MPSTPEEKKKVLTRVRRIRGQIDALERSLEGDAECRAILQQIAAVRGAANGLMAEVLESHIRETFDRNDCYSREVSQSVDDTIELVRAYLK [P0AAP3] | 5.29 ± 0.36 h | 4.99 ± 0.14 h | > 8 h | 3.92 ± 0.13 h | 8.3 ± 1.8 h | 4.16 ± 0.36 h | 7.59 h | 6.53 ± 0.38 h | 2.5 ± 0.24 h | 5.52 ± 0.22 h | 4.67 ± 1.9 h | 8.57 ± 0.52 h |
| MPTKPPYPREAYIVTIEKGKPGQTVTWYQLRADHPKPDSLISEHPTAQEAMDAKKRYEDPDKE [P0AAN5] | 5.03 ± 0.57 h | 5.08 ± 0.48 h | 5.38 ± 1.4 h | 4.72 ± 0.16 h | 7.61 h | 4.1 ± 0.042 h | 8.6 ± 1.8 h | – | 3.69 h | 3.08 h | 5.3 h | 9.63 ± 1.6 h |
| MPTSHENALQQRCQQIVTSPVLSPEQKRHFLALEAENNLPYPQLPAEARRALDEGVICDMFEGHAPYKPRYVLPDYARFLANGSEWLELEGAKDLDDALSLLTILYHHVPSVTSMPVYLGQLDALLQPYVRILTQDEIDVRIKRFWRYLDRTLPDAFMHANIGPSDSPITRAILRADAELKQVSPNLTFIYDPEITPDDLLLEVAKNICECSKPHIANGPVHDKIFTKGGYGIVSCYNSLPLAGGGSTLVRLNLKAIAERSESLDDFFTRTLPHYCQQQIAIIDARCEFLYQQSHFFENSFLVKEGLINPERFVPMFGMYGLAEAVNLLCEKEGIAARYGKEAAANEVGYRISAQLAEFVANTPVKYGWQKRAMLHAQSGISSDIGTTPGARLPYGDEPDPITHLQTVAPHHAYYYSGISDILTLDETIKRNPQALVQLCLGAFKAGMREFTANVSGNDLVRVTGYMVRLSDLEKYRAEGSRTNTTWLGEEAARNTRILERQPRVISHEQQMRFSQ | – | – | 3.47 h | – | 6.17 h | – | – | 4.57 h | 2.7 h | 3.94 h | 3.51 h | 5.66 h |
